From PMC4337610 come the findings set out here.

Series [1] has as its target Hfq wild-type (Escherichia coli) (UniProt P0A6X3). The series is described as follows: X-ray crystallography. Conditions: BLI: 25 mM Tris pH 7.5, 50 mM NaCl, 50 mM KCl, 1 mM MgCl2, 1 mM DTT, 0-500 nM Hfq, temperature not stated; EMSA: 1x structure buffer, 1 ug yeast RNA, 37 C …. A general note: Mobility shift assays separate free from complexed probe on a gel.
The target is the same in series [2]. In words: EMSA. To be noted: BLI: 25 mM Tris pH 7.5, 50 mM NaCl, 50 mM KCl, 1 mM MgCl2, 1 mM DTT, 0-500 nM Hfq, temperature not stated; EMSA: 1x structure buffer, 1 ug yeast RNA, 37 C ….
Series [3] has the same target. In words: competition. Conditions: BLI: 25 mM Tris pH 7.5, 50 mM NaCl, 50 mM KCl, 1 mM MgCl2, 1 mM DTT, 0-500 nM Hfq, temperature not stated; EMSA: 1x structure buffer, 1 ug yeast RNA, 37 C ….
The target is the same in series [4]. The series is described as follows: BLI. To be noted: BLI: 25 mM Tris pH 7.5, 50 mM NaCl, 50 mM KCl, 1 mM MgCl2, 1 mM DTT, 0-500 nM Hfq, temperature not stated, EMSA: 1x structure buffer, 1 ug yeast RNA, 37 C ….
Series [5] deals with Hfq66 (UniProt P0A6X3). In words: BLI. To be noted: BLI: 25 mM Tris pH 7.5, 50 mM NaCl, 50 mM KCl, 1 mM MgCl2, 1 mM DTT, 0-500 nM Hfq, temperature not stated; EMSA: 1x structure buffer, 1 ug yeast RNA, 37 C ….
The target in series [6] is HfqRim R19A;P21A;Q33A;Q35A;T49A;R66A (UniProt P0A6X3). In words: BLI. Conditions: BLI: 25 mM Tris pH 7.5, 50 mM NaCl, 50 mM KCl, 1 mM MgCl2, 1 mM DTT, 0-500 nM Hfq, temperature not stated; EMSA: 1x structure buffer, 1 ug yeast RNA, 37 C ….
Series [7] concerns Hfq66. In words: BLI. To be noted: 1 uM RydC; BLI: 25 mM Tris pH 7.5, 50 mM NaCl, 50 mM KCl, 1 mM MgCl2, 1 mM DTT, 0-500 nM Hfq, temperature not stated; EMSA: 1x structure buffer, 1 ug yeast RNA, 37 C …; scale: fold lower affinity than without RydC.

As for “GGCUUCCGAUGUAGACCCGUCCUCCUUCGCCUGCGUCACGGGUCCUGGUUAGACGCAGGCGUUUUCUG [RydC (crystal)]”, the binding entry in series [1] was “binds”.
Consider “GGUUCCGAUGUAGACCCGUCCUCCUUCGCCUGCGUCACGGGUCCUGGUUAGACGCAGGCGUUUUCU [RydC (EMSA transcript)]”, for which the binding result in series [2] and in series [3] was “binds” each time.
Regarding “GGUUGUUUAUAUUACGAUAAUUAUUAGGCAUUAACGGGAACCGGAGCGUUCCCGAUUCACCAUGGAUGGCCUUUUCGGCAAGGGCUCCUCCCUUCCUCUGUUCUACGUCGGAUAACUGGCUCACGGAAUUGUCCGUGGG [cfa1]”, the Kd result in series [4] and in series [6] was “binds” in each case. For the same substance, the binding entry with Hfq66 [5] is “binds”.
On to cfa1, for which the binding signal (fold lower affinity than without RydC) in series [4] (1 uM RydC) turned out to be 5. Also, in the series on Hfq66 [7], the binding signal was 100.
